In paper PMC6251370:

Target: recombinant N-terminal SH3 domain (SH3N) of CRKL with a C-terminal hexahistidine tag (human)
Assay: dynamic mass redistribution

## QPPPVPAKKS [peptide corresponding to the second PXXPXK motif of SASH1 (aa982–991)]
  Kd: 7.38 µM
